The chains are these.
T1: (His)6-MBP-tagged mouse MCPH1 (Microcephalin 1) (mouse, UniProt Q7TT79 1-822)
T1 construct: mouse MCPH1 (microcephalin 1), wild type, cDNA NM_173189.2; calculated molecular mass of the untagged protein 90,372 Da; A PreScission protease site lies between the (His)6-MBP tag and MCPH1; the uncleaved, tagged protein was used in the pull-downs; Tag-free MCPH1 (tag cleaved) was used in the Benzonase protection and TPM assays; also called (His)6-MBP-MCPH1; wild-type MCPH1; source: Expi293F …
T1 sequence (looked up): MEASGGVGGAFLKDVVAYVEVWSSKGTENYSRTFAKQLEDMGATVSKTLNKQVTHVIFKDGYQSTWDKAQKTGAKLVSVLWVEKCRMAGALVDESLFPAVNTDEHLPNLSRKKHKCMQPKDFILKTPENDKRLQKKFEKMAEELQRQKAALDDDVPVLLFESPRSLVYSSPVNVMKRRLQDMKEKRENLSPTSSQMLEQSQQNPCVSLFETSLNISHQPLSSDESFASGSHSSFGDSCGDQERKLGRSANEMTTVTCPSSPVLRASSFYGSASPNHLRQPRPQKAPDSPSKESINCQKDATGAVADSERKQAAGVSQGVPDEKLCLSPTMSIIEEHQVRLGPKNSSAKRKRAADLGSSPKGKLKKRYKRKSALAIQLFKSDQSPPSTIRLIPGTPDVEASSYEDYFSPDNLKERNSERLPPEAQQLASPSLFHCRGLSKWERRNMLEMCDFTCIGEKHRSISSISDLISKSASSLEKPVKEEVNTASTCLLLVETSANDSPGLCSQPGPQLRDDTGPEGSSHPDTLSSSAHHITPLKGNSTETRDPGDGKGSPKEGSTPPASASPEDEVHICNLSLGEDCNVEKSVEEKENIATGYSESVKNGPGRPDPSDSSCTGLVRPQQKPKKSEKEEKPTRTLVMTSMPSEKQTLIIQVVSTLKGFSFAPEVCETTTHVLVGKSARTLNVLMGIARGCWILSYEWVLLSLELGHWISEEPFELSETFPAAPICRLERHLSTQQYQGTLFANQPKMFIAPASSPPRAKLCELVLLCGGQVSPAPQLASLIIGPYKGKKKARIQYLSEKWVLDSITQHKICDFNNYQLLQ

T2: MCPH1 (tag-free) (Mus musculus, UniProt Q7TT79 1-822)
T2 sequence: T1 sequence (looked up)

B1: Strep-tagged mouse DMC1 (natural protein, UniProt Q61880 1-340, looked up)
chain: MKEDQVVQEESGFQDDEESLFQDIDLLQKHGINMADIKKLKSVGICTIKGIQMTTRRALCNVKGLSEAKVEKIKEAANKLIEPGFLTAFQYSERRKMVFHITTGSQEFDKLLGGGIESMAITEAFGEFRTGKTQLSHTLCVTAQLPGTGGYSGGKIIFIDTENTFRPDRLRDIADRFNVDHEAVLDNVLYARAYTSEHQMELLDYVAAKFHEEAGIFKLLIIDSIMALFRVDFSGRGELAERQQKLAQMLSRLQKISEEYNVAVFVTNQMTADPGATMTFQADPKKPIGGHILAHASTTRISLRKGRGELRIAKIYDSPEMPENEATFAITAGGIGDAKE
notes: mouse DMC1, the meiotic RAD51 homolog; (His)6-tagged mouse DMC1 was used in the Benzonase protection assay; also called meiotic recombinase DMC1
B2: (His)6-SUMO-tagged mouse MCPH1 fragment, amino acids 1-190 (N-terminus, containing BRCT1) (domain or fragment, UniProt Q7TT79 1-190, looked up)
chain: MEASGGVGGAFLKDVVAYVEVWSSKGTENYSRTFAKQLEDMGATVSKTLNKQVTHVIFKDGYQSTWDKAQKTGAKLVSVLWVEKCRMAGALVDESLFPAVNTDEHLPNLSRKKHKCMQPKDFILKTPENDKRLQKKFEKMAEELQRQKAALDDDVPVLLFESPRSLVYSSPVNVMKRRLQDMKEKRENLS
notes: mouse MCPH1, residues 1-190, containing BRCT1; also called truncated MCPH1 variant; source: E. coli BL21*(DE3)(pLys), purified (Ni-NTA); not shown: His6, N-terminal, kept; SUMO, N-terminal, kept
B3: (His)6-SUMO-tagged mouse MCPH1 fragment, amino acids 628-822 (C-terminus, containing BRCT2 and BRCT3) (domain or fragment, UniProt Q7TT79 628-822, looked up)
chain: EKEEKPTRTLVMTSMPSEKQTLIIQVVSTLKGFSFAPEVCETTTHVLVGKSARTLNVLMGIARGCWILSYEWVLLSLELGHWISEEPFELSETFPAAPICRLERHLSTQQYQGTLFANQPKMFIAPASSPPRAKLCELVLLCGGQVSPAPQLASLIIGPYKGKKKARIQYLSEKWVLDSITQHKICDFNNYQLLQ
notes: mouse MCPH1, residues 628-822, containing BRCT2 and BRCT3; also called truncated MCPH1 variant; source: E. coli BL21*(DE3)(pLys), purified (Ni-NTA); not shown: His6, N-terminal, kept; SUMO, N-terminal, kept
B4: (His)6-SUMO-tagged mouse MCPH1 fragment, amino acids 384-476 (central region containing a Condensin-II binding region) (domain or fragment, UniProt Q7TT79 384-476, looked up)
chain: PPSTIRLIPGTPDVEASSYEDYFSPDNLKERNSERLPPEAQQLASPSLFHCRGLSKWERRNMLEMCDFTCIGEKHRSISSISDLISKSASSLE
notes: also called truncated MCPH1 variant; source: E. coli BL21*(DE3)(pLys), purified (Ni-NTA); not shown: His6, N-terminal, kept; SUMO, N-terminal, kept
B5: dsDNA (Oligo 5+9) (dsDNA)
DNA 1: ACGCTGCCGAATTCTACCAGTGCCTTGCTAGGACATCTTTGCCCACCTGCAGGTTCACCC
DNA 2: GGGTGAACCTGCAGGTGGGCAAAGATGTCCTAGCAAGGCACTGGTAGAATTCGGCAGCGT
B6: 3'-overhang DNA (Oligo 5+10) (mixed)
DNA 1: B5 DNA 1
DNA 2: AGGCACTGGTAGAATTCGGCAGCGT
B7: Holliday junction (Oligo 5+6+7+8) (structured_DNA)
DNA 1: B5 DNA 1
DNA 2: GGGTGAACCTGCAGGTGGGCAAAGATGTCCATCTGTTGTAATCGTCAAGCTTTATGCCGT
DNA 3: ACGGCATAAAGCTTGACGATTACAACAGATCATGGAGCTGTCTAGAGGATCCGACTATCG
DNA 4: CGATAGTCGGATCCTCTAGACAGCTCCATGTAGCAAGGCACTGGTAGAATTCGGCAGCGT
B8: Strep-tagged mouse RAD51 (natural protein, UniProt Q08297 1-339, looked up)
chain: MAMQMQLEASADTSVEEESFGPQPISRLEQCGINANDVKKLEEAGYHTVEAVAYAPKKELINIKGISEAKADKILTEAAKLVPMGFTTATEFHQRRSEIIQITTGSKELDKLLQGGIETGSITEMFGEFRTGKTQICHTLAVTCQLPIDRGGGEGKAMYIDTEGTFRPERLLAVAERYGLSGSDVLDNVAYARGFNTDHQTQLLYQASAMMVESRYALLIVDSATALYRTDYSGRGELSARQMHLARFLRMLLRLADEFGVAVVITNQVVAQVDGAAMFAADPKKPIGGNIIAHASTTRLYLRKGRGETRICKIYDSPCLPEAEAMFAINADGVGDAKD
notes: mouse RAD51 recombinase; (His)6-tagged mouse RAD51 was used in the Benzonase protection and TPM assays; also called RAD51 recombinase
B9: (His)6-SUMO-tagged mouse MCPH1 fragment, amino acids 287-383 (central region containing the nuclear localization signal) (domain or fragment, UniProt Q7TT79 287-383, looked up)
chain: DSPSKESINCQKDATGAVADSERKQAAGVSQGVPDEKLCLSPTMSIIEEHQVRLGPKNSSAKRKRAADLGSSPKGKLKKRYKRKSALAIQLFKSDQS
notes: mouse MCPH1, residues 287-383, containing the nuclear localization signal; also called truncated MCPH1 variant; source: E. coli BL21*(DE3)(pLys), purified (Ni-NTA); not shown: His6, N-terminal, kept; SUMO, N-terminal, kept
B10: Oligo 3 ssDNA (ssDNA)
DNA: GCCGTCGCATGACGCTGCCGAATTCTACCACGCTACTAGGGTGCCTTGCTAGGACATCTTTGCCCACCTGCAGGTTCACCCCGTCCCTGGC
B11: D-loop (Oligo 2+3+4) (mixed)
DNA 1: B10 DNA
DNA 2: GCCAGGGACGGGGTGAACCTGCAGGTGGGCGGCTGCTCATCGTAGGTTAGTATCGACCTATTGGTAGAATTCGGCAGCGTCATGCGACGGC
DNA 3: AAGATGTCCTAGCAAGGCACCCTAGTAGC

Data set [1] addresses T1, (His)6-MBP-tagged mouse MCPH1 …. Nature of the data set: pull-down; (His)6-MBP-MCPH1 (4 μg) incubated with recombinase (1 μg) in 30 μl buffer D (25 mM Tris-HCl pH 7.5, 10% glycerol, 0.01% Igepal, 100 mM KCl, 10 mM imidazole) 30 min at 37°C with Benzonase and 2 mM MgCl2; captured on Talon resin via the (His)6 tag; SDS-PAGE with Coomassie Blue staining. As to conditions: both partners purified.

The data set “Strep-tagged mouse DMC1” concerns the target B1. Nature of the data set: pull-down; (His)6-SUMO-tagged MCPH1 fragments (2 μg) with Strep-tagged RAD51 or DMC1 (2 μg), same procedure (buffer D, Benzonase, Talon resin); SDS-PAGE and western blot with RAD51 or DMC1 antibody. As to conditions: both partners purified. In general terms: In western blotting, separated proteins are transferred to a membrane and probed.

For the data set “Strep-tagged mouse RAD51”, the target named is B8. The data set is described as above. The conditions noted are these: both partners purified.
The target of a further data set is T2, MCPH1 (tag-free). Nature of the data set: EMSA; 50 mM KCl; EMSA: 35 mM Tris-HCl pH 7.5, 1 mM DTT, 50 mM KCl, 0.1 ug/ul BSA, 37 C, 5 min; DNA 750 nM (oligos) or 6 uM (PhiX174) nucleotides/bp. TPM: 100 mM KCl (150 mM high salt). As to conditions: protein: recombinant, tags: none (His6-MBP removed with PreScission).

The record followed here is PMC7498314, “Microcephaly family protein MCPH1 stabilizes RAD51 filaments” (Nucleic Acids Research, 2020).

Turning to B1, the binding result in data set [1] was “binds”. Take B2: the binding result in the data set with Strep-tagged mouse DMC1 and with Strep-tagged mouse RAD51 was “binds” each time. With B3, the binding result with Strep-tagged mouse DMC1 and with Strep-tagged mouse RAD51 was “binds” each time. Turning to B4, the binding result in the data set with Strep-tagged mouse DMC1 and in the data set with Strep-tagged mouse RAD51 was “binds” in each case. Take B5: the binding result with MCPH1 (tag-free) (label: 5'-32P on Oligo 5, blunt) is “binds”. Regarding B6, the binding result with MCPH1 (tag-free) (label: 5'-32P on Oligo 5, 3' overhang 35 nt) is “binds”.

In the case of B7, the binding result with MCPH1 (tag-free) (label: 5'-32P on Oligo 5, four-way junction 1:2 2:3 3:4 4:1) is “binds”. Consider B8, for which the binding result in data set [1] is given as “binds”. For B9, the binding result in the data set with Strep-tagged mouse DMC1 and in the data set with Strep-tagged mouse RAD51 was “binds” throughout.

As to B10, the binding result in the data set with MCPH1 (tag-free) (label: 5'-32P, single strand) is on record as “binds”. Turning to B11, the binding result with MCPH1 (tag-free) (label: 5'-32P on Oligo 3, D-loop, Oligo 2 and 3 pair at both ends, Oligo 4 pairs in the bubble of Oligo 3) is reported as “binds”.
